Article PMC4284738, “14-3-3 Proteins Participate in Light Signaling through Association with PHYTOCHROME INTERACTING FACTORs” (International Journal of Molecular Sciences, 2014)

How the values were obtained:
Assay in all cases: pull-down; 0.3–20 µg of His-14-3-3κ incubated with MBP or MBP-PIFs in MBP column buffer at 4 °C in dark for 5–6 h, then amylose resin overnight; elution with 10 mM maltose; blot with anti-His and anti-MBP
Conditions in all cases: both partners purified
[1] = biological target: T1, MBP-PIF3ala1+2 (PIF3 S23A S115A S116A) (Arabidopsis thaliana, UniProt O80536 1-524, S23A | S115A | S116A)
T1 construct: Transcription factor PIF3, Arabidopsis thaliana, AGI AT1G09530; ala1: Ser-23 to Ala; ala2: Ser-115 and Ser-116 to Ala; The cloning of the mutant into pMAL is not described on its own; source: E. coli BL21 (DE3), purified (amylose resin)
T1 sequence (looked up): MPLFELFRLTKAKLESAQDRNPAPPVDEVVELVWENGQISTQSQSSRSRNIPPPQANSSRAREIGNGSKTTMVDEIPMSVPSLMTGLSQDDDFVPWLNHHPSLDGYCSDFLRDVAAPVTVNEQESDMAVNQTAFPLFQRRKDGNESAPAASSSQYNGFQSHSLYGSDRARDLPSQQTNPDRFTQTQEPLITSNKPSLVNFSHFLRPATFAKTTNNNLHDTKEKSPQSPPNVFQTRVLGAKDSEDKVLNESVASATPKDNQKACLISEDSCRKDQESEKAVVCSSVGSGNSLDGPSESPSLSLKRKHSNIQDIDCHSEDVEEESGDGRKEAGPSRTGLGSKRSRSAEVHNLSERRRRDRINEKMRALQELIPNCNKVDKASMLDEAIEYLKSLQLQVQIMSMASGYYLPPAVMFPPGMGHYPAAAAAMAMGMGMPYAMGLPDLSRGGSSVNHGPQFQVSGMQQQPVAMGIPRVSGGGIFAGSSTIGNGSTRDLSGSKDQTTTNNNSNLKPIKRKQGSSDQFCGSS

MBP-PIF1 = biological target: T2, MBP-PIF1 (Arabidopsis thaliana, UniProt Q8GZM7 1-478)
T2 construct: Transcription factor PIF1, Arabidopsis thaliana; source: E. coli BL21 (DE3), purified (amylose resin)
T2 sequence (looked up): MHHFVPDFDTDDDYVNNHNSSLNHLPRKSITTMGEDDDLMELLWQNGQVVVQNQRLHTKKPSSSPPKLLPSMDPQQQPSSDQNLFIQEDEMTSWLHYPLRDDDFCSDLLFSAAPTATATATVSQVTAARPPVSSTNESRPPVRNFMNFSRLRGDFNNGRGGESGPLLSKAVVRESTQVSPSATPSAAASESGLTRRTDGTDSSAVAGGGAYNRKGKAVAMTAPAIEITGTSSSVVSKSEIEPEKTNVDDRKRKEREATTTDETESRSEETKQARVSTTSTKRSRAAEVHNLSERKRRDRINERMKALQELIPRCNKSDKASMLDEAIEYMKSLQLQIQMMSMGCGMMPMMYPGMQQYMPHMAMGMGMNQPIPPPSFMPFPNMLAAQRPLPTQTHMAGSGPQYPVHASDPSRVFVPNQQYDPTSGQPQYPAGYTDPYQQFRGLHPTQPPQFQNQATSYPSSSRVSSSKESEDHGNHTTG

[2] = biological target: T3, maltose-binding protein (MBP)-tagged PIF3 (Arabidopsis thaliana, UniProt O80536 1-524)
T3 construct: Transcription factor PIF3, Arabidopsis thaliana, AGI AT1G09530; also called MBP-PIF3; source: E. coli BL21 (DE3), purified (amylose resin)
T3 sequence (looked up): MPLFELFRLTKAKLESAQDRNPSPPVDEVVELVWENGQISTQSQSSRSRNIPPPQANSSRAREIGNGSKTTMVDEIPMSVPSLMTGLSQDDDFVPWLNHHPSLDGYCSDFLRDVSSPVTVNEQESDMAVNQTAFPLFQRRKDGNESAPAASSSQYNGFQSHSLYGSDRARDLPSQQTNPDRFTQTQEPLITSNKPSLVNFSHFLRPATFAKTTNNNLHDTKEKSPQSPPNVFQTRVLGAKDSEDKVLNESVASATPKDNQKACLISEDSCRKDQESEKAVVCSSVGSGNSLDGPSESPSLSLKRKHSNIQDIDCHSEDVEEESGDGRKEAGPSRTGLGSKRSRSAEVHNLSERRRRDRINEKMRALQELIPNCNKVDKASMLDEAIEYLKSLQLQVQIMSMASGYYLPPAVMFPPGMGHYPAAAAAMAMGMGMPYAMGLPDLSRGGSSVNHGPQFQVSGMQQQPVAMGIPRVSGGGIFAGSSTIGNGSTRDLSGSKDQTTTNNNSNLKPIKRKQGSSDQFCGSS

Measured: binding result

B1: His-tagged 14-3-3κ (natural protein, Arabidopsis thaliana, UniProt P48348 1-248, looked up)
chain: MATTLSRDQYVYMAKLAEQAERYEEMVQFMEQLVSGATPAGELTVEERNLLSVAYKNVIGSLRAAWRIVSSIEQKEESRKNEEHVSLVKDYRSKVETELSSICSGILRLLDSHLIPSATASESKVFYLKMKGDYHRYLAEFKSGDERKTAAEDTMIAYKAAQDVAVADLAPTHPIRLGLALNFSVFYYEILNSSEKACSMAKQAFEEAIAELDTLGEESYKDSTLIMQLLRDNLTLWTSDMQEQMDEA
notes: 14-3-3 kappa isoform, Arabidopsis thaliana; also called HIS-14-3-3κ; His-14-3-3κ
binds: all assays above
